Test: yeast display, Sf9 membrane polyspecificity reagent, FACS + sequencing; frameworks hold sequencing errors
Procedure, shortened: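 Sorting gates, low and high (top ~1%), were placed on anti-HA fluorescence to track expression and on streptavidin fluorescence to track reagent binding. A clone's polyreactivity label is taken from the gate it came out of. The reagent was 10% biotinylated, detergent-solubilized Sf9 membrane, applied for 1 hour at 4 °C to galactose-induced yeast display cells.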

Row | Sequence | polyreactivity (PSR sort gate)
1 | QVQLVESGGGLVQAGGSLRLSCAASGSIFTVYGMGWYRQAPGKERELVAAITCTSGGTYYADSVKGRFTISRDNAKNTVYLQMNSLKPEDTAVYYCNADGGSGAYLDLTITDYDYWGQGTQVTVSS | low polyreactivity
2 | QVQLVESGGGLVQAGGSLRLSCAASGSIFTWNAMGWYRQAPGKERELVAAISWIGDSTYYADSVKGRFTISRDNAKNTVYLQMNSLKPEDTAVYYCAAEYAQGSRELESWGQGTQVTVSS | low polyreactivity
3 | QVQLVESGGGLVQAGGSLRLSCAASGSIFTWNGMGWYRQAPGKERELVAAISNGASTNYADSVKGRFTISRDNAKNTVYLQMNSLYPEDTAVYYCAAKSTGRYDYWGQGTQVTVSS | low polyreactivity
4 | QVQLVESGGGLVQAGGSLRLSCAASGSIFTWNVMGWYRQAPGKERELVAAISSGGSTNYADSVKGRFTISRDNAKNTVYLQMNSLKPEDTAVYYCATYFRVWYRSYDYWGQGTQVTVSS | high polyreactivity
5 | QVQLVESGGGLVQAGGSLRLSCAASGSIFTWYAMGWYRQAPGKERELVAAITRGGSTYADSVKGRFTISRDNAKNTVYLQMNSLKPEDTAVYYCNAVYGVYDFNYWGQGTQVTVSS | low polyreactivity
6 | QVQLVESGGGLVQAGGSLRLSCAASGSIFTYNTMGWYRQAPGKERELVAAISGRGGRTYYADSVKGRFTISRDNAKKTVYLQMNSLKPEDTAVYYCNARKYSQKIYGNYNYWGQGTQVTVSS | high polyreactivity
7 | QVQLVESGGGLVQAGGSLRLSCAASGSIFTYYAMGWYRPEPGKERELVAAISRRGTRTYYADSVKGRFTISRDNAKNTVYLQMNSLKPEDTAVYYCAAEYTETGTAKMEYWGQGTQVTVSS | high polyreactivity
8 | QVQLVESGGGLVQAGGSLRLSCAASGSIFTYYAMGWYRQAPGKERELVAAIDFSGASTSYADSVKGRFTISRDNAKNTVYLQMNSLKPEDTAVYYCAAVLYWYPPYYYWGQGTQVTVSS | low polyreactivity
9 | QVQLVESGGGLVQAGGSLRLSCAASGSIFTYYAMGWYRQAPGKERELVAAINWSGGSTYYADSVKGRFTISRDNAKNTVYLQMNSLKPEDTAVYYCATDYYARRHSPRYDYWGQGTQVTVSS | low polyreactivity
10 | QVQLVESGGGLVQAGGSLRLSCAASGSIFTYYAMGWYRQAPGKERELVAAISYSGGTTYYADSVKGRFTISRDNAKNTVYLQMYSLKPEDTAVYYCNVDADYESEWLSVGYDYWGQGTQVTVSS | low polyreactivity
11 | QVQLVESGGGLVQAGGSLRLSCAASGSIFTYYAMGWYRQAPGKERELVASISWGGGSTYYADSVKGRFTISRDNAKNSVYLQMNSLKPVDTAVYYCATDVYVDYFVGGEYWGQGTQVTVSS | low polyreactivity
12 | QVQLVESGGGLVQAGGSLRLSCAASGSIFTYYVMGWYRQAPGKERELVATITGSSGSTYYADSVKGRFTISRDNAKNTVYLQMNSLKPEDTAVYYCNRTYYHYLYRGYGYWGQGTQVTVSS | low polyreactivity
13 | QVQLVESGGGLVQAGGSLRLSCAASGSIFVAYDMGCYRQAPGKESALVAAIDSVGRTNYADSVKGRFTISRDNAKNTVYLQMNSLQPEDTAVYYCNADQYYSFYDPDDYWGQGTQVTVSS | low polyreactivity
14 | QVQLVESGGGLVQAGGSLRLSCAASGSIFVDYAMGWYRQAPGKERELVAAITSGGRTNYADSVKGRFTISRDNAKNTVYLQMKSLKPEDTAVYYCNKTRYTNYYTTTFDYWGQGTQVTVSS | low polyreactivity
15 | QVQLVESGGGLVQAGGSLRLSCAASGSIFVFYAMGWYRQAPGKERELVASITRSGVSTYYADSVKGRFTISRDNAKNTVYLQMNSLKPEDTAVYYCNVYKGNVVEHDYWGQGTQVTVSS | high polyreactivity
16 | QVQLVESGGGLVQAGGSLRLSCAASGSIFVGNAMGWYRQAPGKERELFAAISSSGGSTYYADSVKGRFTISRDKAKNTFYLQMNILKPEDTAVYYCASDTYSTSGFYYWGQGTQVTVSS | low polyreactivity
17 | QVQLVESGGGLVQAGGSLRLSCAASGSIFVGNAMGWYRQAPGKERELVAAISRGGGSTYYADSVKGRFTISRDNAKNTVYLQMNSLKPEDTAVYYCAAVKYYYGSAYDYWGQGTQVTVSS | high polyreactivity
18 | QVQLVESGGGLVQAGGSLRLSCAASGSIFVGNAMGWYRQAPGKERELVAAISWGGARTYYADSVKGRFTISRDNAKNTVYLQMNSLKQEDTAVYYCAAGSSSRSTTHYYYWGQGTQVTVSS | high polyreactivity
19 | QVQLVESGGGLVQAGGSLRLSCAASGSIFVGNAMGWYRQAPGKERELVATISWSGGSTYYADSVKGRFTISRDNAKNTVYLQMNSLKPEDTAVYYCAKTPYRRYRYGGYTYRTYDYWGQGTQVTVSS | low polyreactivity
20 | QVQLVESGGGLVQAGGSLRLSCAASGSIFVGYAMGWYRQAPGKERELVAAISASGSSTYYADSVKGRFTISRDNAKNTVYLQMNSLKPEDTAVYYCATKRVASSWTYVYWGQGSQVTVSS | high polyreactivity
21 | QVQLVESGGGLVQAGGSLRLSCAASGSIFVGYAMGWYRQAPGKERELVARISSDGDTYYADSVKGRFTISRDNAKNTVYLQMNSLKPEDTAVYYCNADLYGGGDKSVISGLNGEYEYWGQGTQVTVSS | low polyreactivity
22 | QVQLVESGGGLVQAGGSLRLSCAASGSIFVGYAMGWYRQAPGKETELVAAISTRGGSTYYAETVKGRFTISRDNAKNTVYLQMNILKPEDNAVYYCAADYLDSTYGYVYGWDDYWGKGTQVTVSS | low polyreactivity

Row | Sequence | polyreactivity (PSR sort gate)
23 | QVQLVESGGGLVQAGGSLRLSCAASGSIFVIYAMGWYRPAPGKERELVAAITGRGGRTYYADSVKGRFTISRDNAKNTVYLQMISLKPEDNAVYYCAADSVYTLGLKYDYWGHGTQVTVSS | high polyreactivity
24 | QVQLVESGGGLVQAGGSLRLSCAASGSIFVKNAMGWYIHAPGKERELVATISRRGGSTYYADSVKGRFTISRDIAKNTVYLQMNSMKPEDTAVYYCAADRSNRPYYRQGYDYWGQGTQVTVSS | high polyreactivity
25 | QVQLVESGGGLVQAGGSLRLSCAASGSIFVKNAMGWYRQAPGKERELVAVITIRTATPYYADSVKGRFTISRDNAKNSVYLQMNSLKPEDTAVYYCAAAKRQRGYLQREGNYWGQGTQVTVSS | low polyreactivity
26 | QVQLVESGGGLVQAGGSLRLSCAASGSIFVKYAMGWYRQAPGTERELVAAISWSGDSTYYADSVKGRITISRDNAKNTVYLQMNSLIPEDTAVYFCAAYSGYGGVSMYYWGQGTQVTVSS | low polyreactivity
27 | QVQLVESGGGLVQAGGSLRLSCAASGSIFVLNAMGLYRQAPGKERELVAGISSSGGSTYYADSVKGRFTISRDNAKNTVYLQMNSLKPEDTAVYYFAKDAGLYEGDYWGQGTQVTVSS | low polyreactivity
28 | QVQLVESGGGLVQAGGSLRLSCAASGSIFVLNAMGWYRQAPGKERELGAAITNVGSTYYADSVKGRFTISRDNAKNTVYLQMNSLKPEDTAVYYCNAVLAPGGYDYWGQGTQVTVSS | low polyreactivity
29 | QVQLVESGGGLVQAGGSLRLSCAASGSIFVLYAMGWYRQAPGKERELVAAINYDGASTYYADSVKGRFTISRDNAKNTVYLQMNSLKREDTAVYYCAKRFGPAYFRLYDYWGQGTQVTVSS | low polyreactivity
30 | QVQLVESGGGLVQAGGSLRLSCAASGSIFVNNAMGLYRQAPGKERELVAAISSRSSRTFYADSVKGRFTISRDYAKNTVYLQMNSLKPEDTAVYYCAAELYGLKYGYYLSYDYWGQGTQVTVSS | high polyreactivity
31 | QVQLVESGGGLVQAGGSLRLSCAASGSIFVNYAMGWFRQAPGKERELVAAITRSGGRTYYADSVKGRFTISRDNAKNTVYLQMNSLKPEDTAVYYCAARLGYAGNRDGSWGQGTQVTVSS | high polyreactivity
32 | QVQLVESGGGLVQAGGSLRLSCAASGSIFVNYAMGWYRQAPGKERELVAAISRSGGRTYYADSVKGRFTISRDNAKNTVYLQMNSLKPEDTAVYDCNVYPVLRTIEGDYWGQGTQVTVSS | high polyreactivity
33 | QVQLVESGGGLVQAGGSLRLSCAASGSIFVPNAMGWSRQALGKERELVAAITYSGVDTYYADSVKGRFTISRDNAKNTVYLQMNSLKPEDTAVYYCAADNGRVGYDYWGQGTQVTVSS | low polyreactivity
34 | QVQLVESGGGLVQAGGSLRLSCAASGSIFVPNTMGWYRQAPGKERELVAVISRSGGSTNYADSVKGRFTISRDNAKNTVYLQMNSLKPEDTAVYYCNADDGYSVWGYDYWGQGTQVTVSS | low polyreactivity
35 | QVQLVESGGGLVQAGGSLRLSCAASGSIFVPYAMGWYRQAPGKEREFVAVISLRGSRTYYADSVKGRFTISRDNAKNTVYLQMNSLKPEDTAVYYCATTGYRLRQATRYDYWGQGTQVTVSS | high polyreactivity
36 | QVQLVESGGGLVQAGGSLRLSCAASGSIFVPYAMGWYRQAPGKERELVAAISSSTASTYYADSVKGRFTISRDNAKNTVYLQMNRLKPEETAVYYFNAEQWDYGVRVAHYDYWGQGTQVTVSS | low polyreactivity
37 | QVQLVESGGGLVQAGGSLRLSCAASGSIFVPYAMGWYRQAPGKERELVAGINWSSGRTYYADSVKGRFTISRDNAKNTVYLQMNSLKPEDTAVYYCAAEKYTTYSFYHVAYDYWGQGTQVTVSS | high polyreactivity
38 | QVQLVESGGGLVQAGGSLRLSCAASGSIFVPYAMGWYRQAPGKERELVATITISGGSTYYADSVKGRFTISRDNAKNTVYLQMNSLKPEDTAVYYCAAETTASYYKRTDDYDYWGQGTQVTVSS | low polyreactivity
39 | QVQLVESGGGLVQAGGSLRLSCAASGSIFVRNAMGWYRQAPGKERELVAADSVKGRFTISRDNAKNTVYLQMNSLKPEDTAVYYCNKDYIIRRGPIVYYGFDYWGQGTQVTVSS | low polyreactivity
40 | QVQLVESGGGLVQAGGSLRLSCAASGSIFVRNAMGWYRQAPGKERELVATITRRGGRTYYADSVKGRFTISRDNAKNTVYLQMNSLKPEDTAVYYCAARVRTATRRFTSYYWGQGTQVTVSS | high polyreactivity
41 | QVQLVESGGGLVQAGGSLRLSCAASGSIFVRYAMGGYRQAPGKERELVASIRSRGDSTYYADSVKGRFTISRDNAKNTVYLQMISLKPEDTAVYFFADRRYPPRMDYWGQGTQVTVSS | high polyreactivity
42 | QVQLVESGGGLVQAGGSLRLSCAASGSIFVRYAMGWYRQAPGKERELVAAISSGGRTYYADSVKGRFTISRDNAKNTVYLQMNSLKPEDTAVYYCNAVKRVPSLGPYDYWGQGTQVTVSS | high polyreactivity
43 | QVQLVESGGGLVQAGGSLRLSCAASGSIFVSNAMGWYRQAPGKERELVAAISSGGSTNYADSVKGRFTISRDNAKNTVYLQMNSLKPEDTAVYYCAARYYGYAGRFDYWGQGTQVTVSS | low polyreactivity
